The data set relates to Stat84 and Stat91L homodimers. Briefly: Dissociation-reassociation analysis (gel mobility shift with GAS probe). It counts as biochemical, human. Particulars: GST fusion protein 0.5 to 5 μM. The procedure: Gel Mobility Shift Assays. Gel mobility shift assays were carried out as described (34). An oligonucleotide corresponding to the GAS element from the human FcγRI receptor gene (Pearse et al. 1993) was synthesized and used for gel mobility shift assays. The oligonucleotide has the following sequence: 5′[…]3′ (SEQ. ID NO:17).
Dissociation-reassociation Analysis. Extracts were incubated with various concentrations of peptides or fusion proteins, and ^32P-labeled GAS oligonucleotide probe in gel shift buffer was then added to promote the formation of protein-DNA complex followed by mobility shift analysis.
Dimerization of Stat91 Involves Phosphoryrosyl Peptide and SH2 Interactions. Based on the results described above, we devised a dissociation-reassociation assay in the absence of guanidium hydrochloride to explore the possible nature of interactions involved in dimer formation (FIG. 20). When the short and the long forms of a homodimer are mixed with a dissociating agent (e.g., a peptide containing the putative dimerization domain), the subunits of the dimer should dissociate (in a concentration dependent fashion) due to the interaction of the agent with the dimerization domain(s) of the protein. […] At high concentration of the dissociating agent, subunits of the dimer may not be able to re-form and no DNA-protein complexes would be detected (FIG. 20).

Sequence of Stat84 and Stat91L homodimers (P42224 2-712 limits assumed): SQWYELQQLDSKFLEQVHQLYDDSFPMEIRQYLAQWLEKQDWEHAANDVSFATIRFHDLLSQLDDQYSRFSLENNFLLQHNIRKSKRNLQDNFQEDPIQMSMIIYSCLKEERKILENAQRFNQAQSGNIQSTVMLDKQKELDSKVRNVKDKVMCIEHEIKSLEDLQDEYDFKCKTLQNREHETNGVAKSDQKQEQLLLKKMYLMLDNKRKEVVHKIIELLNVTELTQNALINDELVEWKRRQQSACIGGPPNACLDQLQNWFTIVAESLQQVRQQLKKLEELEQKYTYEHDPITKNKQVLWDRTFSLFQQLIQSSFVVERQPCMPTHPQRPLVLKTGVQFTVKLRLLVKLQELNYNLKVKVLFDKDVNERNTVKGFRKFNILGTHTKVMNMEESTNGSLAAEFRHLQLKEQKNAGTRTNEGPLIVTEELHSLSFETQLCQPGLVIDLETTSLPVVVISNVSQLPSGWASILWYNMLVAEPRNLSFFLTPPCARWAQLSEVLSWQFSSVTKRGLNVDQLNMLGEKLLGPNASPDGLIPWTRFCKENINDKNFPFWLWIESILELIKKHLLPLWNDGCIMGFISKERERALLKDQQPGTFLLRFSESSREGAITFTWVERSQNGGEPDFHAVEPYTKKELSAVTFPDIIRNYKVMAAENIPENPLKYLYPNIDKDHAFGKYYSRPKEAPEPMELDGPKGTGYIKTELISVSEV

B1: GST-91SH2: GST fusion protein encoding amino acids 573 to 672 of Stat91 (protein)
chain: WNDGCIMGFISKERERALLKDQQPGTFLLRFSESSREGAITFTWVERSQNGGEPDFHAVEPYTKKELSAVTFPDIIRNYKVMAAENIPENPLKYLYPNID
modifications: left off: a dimerising Fc or GST
notes: GST fusion protein encoding amino acids 573 to 672 of Stat91
On to B1, for which the “formation of heterodimer / exchange of subunits between Stat84 and Stat91L homodimers” value is listed as “promoted the formation of a heterodimer”.

Source of the values: patent US7339039B2, “Nucleic acids encoding receptor recognition factors, and methods of use thereof” (The Rockfeller University, priority 1992, dated 2008).
